We go through twelve variants from the FLAb antibody collection (doi:10.7554/elife.23156).

B1: scFv; the commonest letter at each place (parent)
chain 1: EVKLDETGGGLVQPGRPMKLSCVASGFTFSDYWMNWVRQSPEKGLEWVAQIRNKPYNYETYYSDSVKGRFTISRDDSKSSVYLQMNNLRVEDMGIYYCTGSYYGMDYWGQGTSVTVS
chain 2: DVVMTQTPLSLPVSLGDQASISCRSSQSLVHSNGNTYLRWYLQKPGQSPKVLIYKVSNRFSGVPDRFSGSGSGTDFTLKISRVEAEDLGVYFCSQSTHVPWTFGGGTKLEIK

Where only a bound is given, the exact number is not on record here.

In the data set “fluorescein” the parent is B1. As to the kind of experiment: Kd (Tite-Seq). The conditions noted are these: with fluorescein; format: scFv 4-4-20, heavy + light.
Variants of B1 are the subject of data set [1]. As to the kind of experiment: yeast surface expression (ratio to wild type); higher = more expressed. The conditions noted are these: format: scFv 4-4-20, heavy + light.

With chain 1 EVKLDETGGGLVQPGRPMKLSCVASGFVFDDYWMNWVRQSPEKGLEWVAQIRNKPYNYETYYSDSVKGRFTISRDDSKSSVYLQMNNLRVEDMGIYYCTGSYYGMDYWGQGTSVTVS chain 2 DVVMTQTPLSLPVSLGDQASISCRSSQSLVHSNGNTYLRWYLQKPGQSPKVLIYKVSNRFSGVPDRFSGSGSGTDFTLKISRVEAEDLGVYFCSQSTHVPWTFGGGTKLEIK [chain 1 T28V S30D], the Kd in the data set with fluorescein is 0.454 nM. Moreover, the yeast surface expression in data set [1] was found to be 0.917.

As for chain 1 EVKLDETGGGLVQPGRPMKLSCVASGFVFQDYWMNWVRQSPEKGLEWVAQIRNKPYNYETYYSDSVKGRFTISRDDSKSSVYLQMNNLRVEDMGIYYCTGSYYGMDYWGQGTSVTVS chain 2 DVVMTQTPLSLPVSLGDQASISCRSSQSLVHSNGNTYLRWYLQKPGQSPKVLIYKVSNRFSGVPDRFSGSGSGTDFTLKISRVEAEDLGVYFCSQSTHVPWTFGGGTKLEIK [chain 1 T28V S30Q], in the data set with fluorescein, the Kd turned out to be 0.989 nM. For the same variant, in data set [1], the yeast surface expression amounted to 1.1.

With chain 1 EVKLDETGGGLVQPGRPMKLSCVASGFVFSDYWMNHVRQSPEKGLEWVAQIRNKPYNYETYYSDSVKGRFTISRDDSKSSVYLQMNNLRVEDMGIYYCTGSYYGMDYWGQGTSVTVS chain 2 DVVMTQTPLSLPVSLGDQASISCRSSQSLVHSNGNTYLRWYLQKPGQSPKVLIYKVSNRFSGVPDRFSGSGSGTDFTLKISRVEAEDLGVYFCSQSTHVPWTFGGGTKLEIK [chain 1 T28V W36H], in the data set with fluorescein, the dissociation constant Kd is no less than 10000 nM. In data set [1], the yeast surface expression worked out at 0.619.

For chain 1 EVKLDETGGGLVQPGRPMKLSCVASGFVFSDYGMNWVRQSPEKGLEWVAQIRNKPYNYETYYSDSVKGRFTISRDDSKSSVYLQMNNLRVEDMGIYYCTGSYYGMDYWGQGTSVTVS chain 2 DVVMTQTPLSLPVSLGDQASISCRSSQSLVHSNGNTYLRWYLQKPGQSPKVLIYKVSNRFSGVPDRFSGSGSGTDFTLKISRVEAEDLGVYFCSQSTHVPWTFGGGTKLEIK [chain 1 T28V W33G], in the data set with fluorescein, the Kd is no less than 10000 nM. Moreover, the yeast surface expression in data set [1] turned out to be 0.759.

As to chain 1 EVKLDETGGGLVQPGRPMKLSCVASGFWFSRYWMNWVRQSPEKGLEWVAQIRNKPYNYETYYSDSVKGRFTISRDDSKSSVYLQMNNLRVEDMGIYYCTGSYYGMDYWGQGTSVTVS chain 2 DVVMTQTPLSLPVSLGDQASISCRSSQSLVHSNGNTYLRWYLQKPGQSPKVLIYKVSNRFSGVPDRFSGSGSGTDFTLKISRVEAEDLGVYFCSQSTHVPWTFGGGTKLEIK [chain 1 T28W D31R], the Kd in the data set with fluorescein turned out to be 17.1 nM. For the same variant, the yeast surface expression in data set [1] was 0.51.

Regarding chain 1 EVKLDETGGGLVQPGRPMKLSCVASGFWFSYYWMNWVRQSPEKGLEWVAQIRNKPYNYETYYSDSVKGRFTISRDDSKSSVYLQMNNLRVEDMGIYYCTGSYYGMDYWGQGTSVTVS chain 2 DVVMTQTPLSLPVSLGDQASISCRSSQSLVHSNGNTYLRWYLQKPGQSPKVLIYKVSNRFSGVPDRFSGSGSGTDFTLKISRVEAEDLGVYFCSQSTHVPWTFGGGTKLEIK [chain 1 T28W D31Y], in the data set with fluorescein, the Kd is 110 nM. In data set [1], the yeast surface expression stood at 0.371.

For chain 1 EVKLDETGGGLVQPGRPMKLSCVASGFWFSFYWMNWVRQSPEKGLEWVAQIRNKPYNYETYYSDSVKGRFTISRDDSKSSVYLQMNNLRVEDMGIYYCTGSYYGMDYWGQGTSVTVS chain 2 DVVMTQTPLSLPVSLGDQASISCRSSQSLVHSNGNTYLRWYLQKPGQSPKVLIYKVSNRFSGVPDRFSGSGSGTDFTLKISRVEAEDLGVYFCSQSTHVPWTFGGGTKLEIK [chain 1 T28W D31F], the Kd in the data set with fluorescein was found to be 116 nM. In addition, in data set [1], the yeast surface expression is 0.553.

For the variant chain 1 EVKLDETGGGLVQPGRPMKLSCVASGFVFSDSWMNWFRQSPEKGLEWVAQIRNKPYNYETYYSDSVKGRFTISRDDSKSSVYLQMNNLRVEDMGIYYCTGSYYGMDYWGQGTSVTVS chain 2 DVVMTQTPLSLPVSLGDQASISCRSSQSLVHSNGNTYLRWYLQKPGQSPKVLIYKVSNRFSGVPDRFSGSGSGTDFTLKISRVEAEDLGVYFCSQSTHVPWTFGGGTKLEIK [chain 1 T28V Y32S V37F], in the data set with fluorescein, the dissociation constant (Kd) was no less than 10000 nM. In data set [1], the yeast surface expression worked out at 0.818.

On to chain 1 EVKLDETGGGLVQPGRPMKLSCVASGFVFSDNWMNWVRQSPEKGLEWVAQIRNKPYNYETYYSDSVKGRFTISRDDSKSSVYLQMNNLRVEDMGIYYCTGSYYGMDYWGQGTSVTVS chain 2 DVVMTQTPLSLPVSLGDQASISCRSSQSLVHSNGNTYLRWYLQKPGQSPKVLIYKVSNRFSGVPDRFSGSGSGTDFTLKISRVEAEDLGVYFCSQSTHVPWTFGGGTKLEIK [chain 1 T28V Y32N], for which the Kd in the data set with fluorescein was no less than 10000 nM. Moreover, the yeast surface expression in data set [1] worked out at 0.765.

In the case of chain 1 EVKLDETGGGLVQPGRPMKLSCVASGFVFSDRWMNWVRQSPEKGLEWVAQIRNKPYNYETYYSDSVKGRFTISRDDSKSSVYLQMNNLRVEDMGIYYCTGSYYGMDYWGQGTSVTVS chain 2 DVVMTQTPLSLPVSLGDQASISCRSSQSLVHSNGNTYLRWYLQKPGQSPKVLIYKVSNRFSGVPDRFSGSGSGTDFTLKISRVEAEDLGVYFCSQSTHVPWTFGGGTKLEIK [chain 1 T28V Y32R], the Kd in the data set with fluorescein was 24.5 nM. In addition, the yeast surface expression in data set [1] stood at 0.717.

With chain 1 EVKLDETGGGLVQPGRPMKLSCVASGFWFSDYWMNWVRQSPEKGLEWVAQIRNKPYNYETYYSDSVKGRFTISRDDSKSSVYLQMNNLRVEDMGIYYCTGSYYGMDYWGQGTSVTVS chain 2 DVVMTQTPLSLPVSLGDQASISCRSSQSLVHSNGNTYLRWYLQKPGQSPKVLIYKVSNRFSGVPDRFSGSGSGTDFTLKISRVEAEDLGVYFCSQSTHVPWTFGGGTKLEIK [chain 1 T28W], the dissociation constant Kd in the data set with fluorescein was determined as 3.8 nM. Besides, the yeast surface expression in data set [1] came out at 0.893.

For the variant chain 1 EVKLDETGGGLVQPGRPMKLSCVASGFVFSDYWMHWVRQSPEKGLEWVAQIRNKPYNYETYYSDSVKGRFTISRDDSKSSVYLQMNNLRVEDMGIYYCTGSYYGMDYWGQGTSVTVS chain 2 DVVMTQTPLSLPVSLGDQASISCRSSQSLVHSNGNTYLRWYLQKPGQSPKVLIYKVSNRFSGVPDRFSGSGSGTDFTLKISRVEAEDLGVYFCSQSTHVPWTFGGGTKLEIK [chain 1 T28V N35H], in the data set with fluorescein, the Kd is no less than 10000 nM. In addition, in data set [1], the yeast surface expression amounted to 0.671.
